This passage reports enrichment results from article PMC11969024 (2025).

The labels stand for the following.
B1: peptide HD2 (from tick evasin EVA4) / CCL19 (biotinylated, synthetic) (parent complex)
chain 1: EEDDYTAYAPLTCYFT
chain 2: GTNDAEDCCLSVTQKPIPGYIVRNFHYLLIKDGCRVPAVVFTTLRGRQLCAPPDQPWVERIIQRLQRTSAKMKRRSS

The test covers variants of B1.
chain 1 C13S: the enrichment is -6.7 log2 (difference from the parental peptide).
Then chain 1 C13P, with -6.25 log2 (difference from the parental peptide); and chain 1 C13D, with -7.13 log2 (difference from the parental peptide).
Then chain 1 T16E, with -1.61 log2 (difference from the parental peptide).
Then chain 1 T16Y, with -0.692 log2 (difference from the parental peptide).
As to chain 1 T16K, the enrichment was -6.25 log2 (difference from the parental peptide).
The result for chain 1 T16V reads 0.157 log2 (difference from the parental peptide); that for chain 1 T16N, -5.68 log2 (difference from the parental peptide).
The result for chain 1 T16H reads -3.46 log2 (difference from the parental peptide).
Turning to chain 1 T16L, the enrichment is 0.688 log2 (difference from the parental peptide).
The result for chain 1 L11C reads -4.39 log2 (difference from the parental peptide).
Then chain 1 L11H, with -5.81 log2 (difference from the parental peptide).
Take chain 1 L11Q: the enrichment was -1.91 log2 (difference from the parental peptide).
Consider chain 1 L11S, for which the enrichment was -5.08 log2 (difference from the parental peptide).
The result for chain 1 Y14V reads -7.09 log2 (difference from the parental peptide); that for chain 1 Y14A, -9.01 log2 (difference from the parental peptide).
For chain 1 T12Y, the enrichment was 3.73 log2 (difference from the parental peptide).
For the variant chain 1 T12F, the enrichment was 3.41 log2 (difference from the parental peptide).
In the case of chain 1 T12I, the enrichment was 5.78 log2 (difference from the parental peptide).
Take chain 1 T12E: the enrichment was -6.93 log2 (difference from the parental peptide).
Then chain 1 T12P, with -4.32 log2 (difference from the parental peptide); and chain 1 T12A, with -4.86 log2 (difference from the parental peptide); and chain 1 Y8M, with -4.14 log2 (difference from the parental peptide).
For chain 1 Y8S, the enrichment is -6.72 log2 (difference from the parental peptide).
In the case of chain 1 Y8V, the enrichment is -4.57 log2 (difference from the parental peptide).
As for chain 1 Y8H, the enrichment was -6.54 log2 (difference from the parental peptide).
The result for chain 1 Y8L reads -8.33 log2 (difference from the parental peptide); that for chain 1 Y5S, -6.07 log2 (difference from the parental peptide).
Regarding chain 1 Y5D, the enrichment was -5.02 log2 (difference from the parental peptide).
In the case of chain 1 Y5H, the enrichment was -6.3 log2 (difference from the parental peptide).
Then chain 1 Y5T, with -5.05 log2 (difference from the parental peptide).
Then chain 1 Y5I, with -6.6 log2 (difference from the parental peptide); and chain 1 Y5F, with -2.5 log2 (difference from the parental peptide); and chain 1 Y5C, with -4.33 log2 (difference from the parental peptide).
The result for chain 1 Y5M reads -5.03 log2 (difference from the parental peptide); that for chain 1 Y5W, 3.19 log2 (difference from the parental peptide); that for chain 1 T6L, 1.3 log2 (difference from the parental peptide).
In the case of chain 1 T6H, the enrichment was -2.26 log2 (difference from the parental peptide).
Then chain 1 T6D, with 2.57 log2 (difference from the parental peptide); and chain 1 T6E, with 1.9 log2 (difference from the parental peptide).
Then chain 1 T6I, with -2.29 log2 (difference from the parental peptide).
Then chain 1 T6K, with -1.49 log2 (difference from the parental peptide); and chain 1 T6N, with -0.836 log2 (difference from the parental peptide); and chain 1 T6A, with -0.907 log2 (difference from the parental peptide).
Regarding chain 1 D3N, the enrichment is -6.84 log2 (difference from the parental peptide).
Turning to chain 1 D3E, the enrichment is -0.508 log2 (difference from the parental peptide).
The result for chain 1 D3S reads -8.53 log2 (difference from the parental peptide); that for chain 1 D3V, -8.31 log2 (difference from the parental peptide).
Consider chain 1 P10M, for which the enrichment is -7.47 log2 (difference from the parental peptide).
Turning to chain 1 P10W, the enrichment was -2.06 log2 (difference from the parental peptide).
In the case of chain 1 P10F, the enrichment is -4.06 log2 (difference from the parental peptide).
The result for chain 1 P10Y reads -6.54 log2 (difference from the parental peptide).
Then chain 1 E1T, with -5.43 log2 (difference from the parental peptide).
Turning to chain 1 E1V, the enrichment was -1.37 log2 (difference from the parental peptide).
Turning to chain 1 E1I, the enrichment was -1.84 log2 (difference from the parental peptide).
For the variant chain 1 E1H, the enrichment was -5.95 log2 (difference from the parental peptide).
The result for chain 1 E1N reads -2.91 log2 (difference from the parental peptide); that for chain 1 E2A, -0.338 log2 (difference from the parental peptide); that for chain 1 A9E, -4.22 log2 (difference from the parental peptide).
Then chain 1 A9V, with -6.04 log2 (difference from the parental peptide); and chain 1 F15M, with -6.46 log2 (difference from the parental peptide).
The result for chain 1 F15W reads -0.785 log2 (difference from the parental peptide); that for chain 1 F15S, -6.94 log2 (difference from the parental peptide).
For the variant chain 1 F15Y, the enrichment is -1.04 log2 (difference from the parental peptide).
Then chain 1 F15C, with -6.81 log2 (difference from the parental peptide); and chain 1 F15L, with -2.93 log2 (difference from the parental peptide); and chain 1 D4Y, with 0.0224 log2 (difference from the parental peptide).
The result for chain 1 D4F reads -1.53 log2 (difference from the parental peptide).
As for chain 1 D4Q, the enrichment was -5.46 log2 (difference from the parental peptide).
The result for chain 1 D4V reads -4.18 log2 (difference from the parental peptide); that for chain 1 A7Y, 4.06 log2 (difference from the parental peptide); that for chain 1 A7N, -1.33 log2 (difference from the parental peptide).
On to chain 1 A7L, for which the enrichment was 1.76 log2 (difference from the parental peptide).
As for chain 1 A7V, the enrichment is 0.465 log2 (difference from the parental peptide).
Then chain 1 A7I, with 1.38 log2 (difference from the parental peptide).
